Laboratory results as given in patent US20150267232A1, “IN VIVO AND IN VITRO CARBENE INSERTION AND NITRENE TRANSFER REACTIONS CATALYZED BY HEME ENZYMES” (California Institute of Technology, priority 2012, published 2015).

Legend:
[1] = N—H insertion, aniline with ethyl diazo acetate (EDA); format: biochemical; settings: protein 10 uM, EDA 8.5 mM, aniline 20 mM, Na2S2O4 10 mM, 12 h
From the text: We have found a variety of P450 variants to be general catalysts for carbenoid N—H insertion. We combined aniline with EDA in the presence of a reductant (Na2S2O4) under argon atmosphere and tested the mixture with seven P450BM3 variants previously identified as competent catalysts for cyclopropanation (Coelho, P. et al., Science. 2013, 339, 307-310). In choosing this set of P450s, we hypothesized that cyclopropanation activity could correlate with ability to generate the iron-carbenoid intermediate that is also necessary for N—H insertion. Whereas wild type BM3 (WT-BM3 (SEQ ID NO:1), Table 20, entry 1) provided only trace amounts of the desired product (4.3), a few variants gave 4.3 in good yields after 12 h at room temperature. In particular, variant H2-5-F10 which is derived from a thermostable P450BM3 lineage (Lewis, J. C. et al. ChemBioChem, 2010, 11, 2502-2505) and contains 15 mutation from WT-BM3 (SEQ ID NO:1), formed 4.3 in 47% yield and 473 turnovers (TTN) using 0.1% protein relative to EDA (entry 7). […] In contrast, when 1 mol % of the isolated hemin prosthetic group was used as catalyst, the single and double insertion products were produced in a 3.5 to 1 ratio (with a total product yield of 51%).
A representative procedure for P450-catalyzed N—H insertion is as follows. To an unsealed crimp vial, 60 μL of a P450 solution (67 or 133 μM) was added and the vial was sealed. A 12.5 mM solution of sodium dithionite in phosphate buffer (0.1 M, pH=8.0) was degassed by bubbling with argon in a 6 mL crimp-sealed vial. The headspace of the 2 mL vials containing P450 solution were flushed with argon (no bubbling). The buffer/dithionite solution (360 μL) was then added to each reaction vial via syringe, and the gas lines were disconnected from the vials. 10 μL of an 800 mM stock of aniline was added via a glass syringe, followed by 10 μL of a 340 mM stock of EDA (both stocks in MeOH). The reaction vials were then placed in a tray on a plate shaker and left to shake at 40 rpm. The final concentrations of the reagents were typically: 20 mM aniline, 8.5 mM EDA, 10 mM Na2S2O4, and 10 or 20 μM P450. After 12 h at 25° C., the vials were removed from the shaker and uncapped and 1 mL of cyclohexane was added, followed by 20 μL of a 20 mM solution of phenethyl alcohol (internal standard). The mixture was transferred to a 1.5 mL Eppendorf tube and vortexed and centrifuged (13,000×g, 1 min.). The organic layer was dried over sodium sulfate if necessary then analyzed by GC, with comparison to an authentically prepared sample that has been verified by proton NMR ([…], Varian, CDCl3).
Substitution is well-tolerated on the aniline partner on both the ortho and para positions. Reactions were analyzed by a Shimadzu GC with FID detector and J&W HP-5 column (30 m×0.32 mm, 0.25 μm film) and calibrated to an independently prepared sample of each product using phenethyl alcohol as internal standard. Reaction of aniline and EDA was also performed in milligram scale without any organic cosolvent to provide 4.3 in 65% isolated yield.
Calibration curves were plotted as follows. Yields of N—H insertion products were determined using calibration curves made with independently synthesized standards that have been verified by proton NMR, with comparison to known literature data (Baumann, L. K. et al. Organometallics. 2007, 26, 3995-4002; Anding, B. J. et al. Organometallics. 2013, 32, 2599-2607). Two stock solutions of product were made at 160 mM and 40 mM. To four or five samples containing 380 μL of buffer, product was added from either of the stock solutions such at a final concentration of 0.5-8.0 mM in 400 μL was obtained. 20 μL of internal standard was added to each eppendorf tube, then 1 mL of cyclohexane was added and the tubes were vortexed and centrifuged (13,000 ×g, 30 seconds). The organic layer was then analyzed by GC. The ratio of the areas under the internal standard and product peaks were plotted against the concentration for each solution. […]

[2] = P450BM3 compilation plate screen (GC, cyclopropane peaks); format: biochemical; settings: P450BM3 variants

B1: H2A10: 9-10A TS + F87V, L75A, L181A, T268A (protein, listed as Bacillus megaterium)
chain: TIKEMPQPKTFGELKNLPLLNTDKPVQALMKIADELGEIFKFEAPGRVTRYLSSQRLIKEACDESRFDKNLSQAAKFARDFAGDGLVTSWTHEKNWKKAHNILLPSFSQQAMKGYHAMMVDIAVQLVQKWERLNADEHIEVSEDMTRLTLDTIGLCGFNYRFNSFYRDQPHPFIISMVRAADEVMNKLQRANPDDPAYDENKRQFQEDIKVMNDLVDKIIADRKARGEQSDDLLTQMLNGKDPETGEPLDDGNIRYQIITFLIAGHEATSGLLSFALYFLVKNPHVLQKVAEEAARVLVDPVPSYKQVKQLKYVGMVLNEALRLWPTAPAFSLYAKEDTVLGGEYPLEKGDEVMVLIPQLHRDKTVWGDDVEEFRPERFENPSAIPQHAFKPFGNGQRACIGQQFALHEATLVLGMMLKHFDFEDHTNYELDIKETLTLKPKGFVVKAKSKKIPLGGIPSPSTEQSAKKVRKKAENAHNTPLLVLYGSNMGTAEGTARDLADIAMSKGFAPQVATLDSHAGNLPREGAVLIVTASYNGHPPDNAKQFVDWLDQASADEVKGVRYSVFGCGDKNWATTYQKVPAFIDETLAAKGAENIADRGEADASDDFEGTYEEWREHMWSDVAAYFNLDIENSEDNKSTLSLQFVDSAADMPLAKMHGAFSTNVVASKELQQPGSARSTRHLEIELPKEASYQEGDHLGVIPRNYEGIVNRVTARFGLDASQQIRLEAEEEKLAHLPLAKTVSVEELLQYVELQDPVTRTQLRAMAAKTVCPPHKVELEALLEKQAYKEQVLAKRLTMLELLEKYPACEMKFSEFIALLPSIRPRYYSISSSPRVDEKQASITVSVVSGEAWSGYGEYKGIASNYLAELQEGDTITCFISTPQSEFTLPKDPETPLIMVGPGTGVAPFRGFVQARKQLKEQGQSLGEAHLYFGCRSPHEDYLYQEELENAQSEGIITLHTAFSRMPNQPKTYVQHVMEQDGKKLIELLDQGAHFYICGDGSQMAPAVEATLMKSYADVHQVSEADARLWLQQLEEKGRYAKDVWAG
modifications: cytochrome P450NADPH-P-450 reductase precursor, cytochrome P450 (BM3), CYP102A1
notes: 9-10A TS + F87V, L75A, L181A, T268A
**Q.** Which results are given for B1?
**A.** TTn [1]: 238; % Yield ([1]; product 4.3): 24%; ee (cis) ([2]; (R,S)-(S,R), chiral β-CDX GC): −94; de ([2]; diastereomeric excess = ([cis] − [trans])/([cis] + [trans])): −8; Absolute activity ([2]; sum of the area of the cyclopropane peaks over the area of the internal standard): 0.06642
